Source: article PMC9482650, “Quantitative fragmentomics allow affinity mapping of interactomes” (Nature Communications, 2022)
Each block holds one binder with its values, some of them ahead of it.

Experiments:
Assay in all cases: holdup assay
Parameters in all cases: key: below the threshold = too weak to quantify, mostly under pKd 3.1 to 4
Settings in all cases: plain residues with an end cap or a label only (N-terminal biotin on a linker: ttds)
TJP2_1, Q9UDY2 = biological target: TJP2_1, Q9UDY2
APBA1_2, Q02410 = biological target: T1, APBA1_2, Q02410
T1 sequence (Q02410 742-832, limits assumed, looked up): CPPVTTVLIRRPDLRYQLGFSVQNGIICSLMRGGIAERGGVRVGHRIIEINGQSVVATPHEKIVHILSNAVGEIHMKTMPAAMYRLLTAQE

Inadl_3, Q8NI35 = biological target: Inadl_3, Q8NI35
SCRIB_3, Q14160 = biological target: SCRIB_3, Q14160
HTRA4, P83105 = biological target: T2, HTRA4, P83105
T2 sequence (P83105 378-476, limits assumed, looked up): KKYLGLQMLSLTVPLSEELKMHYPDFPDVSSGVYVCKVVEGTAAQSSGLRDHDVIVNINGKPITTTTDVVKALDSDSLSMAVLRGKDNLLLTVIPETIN

Inadl_1, Q8NI35 = biological target: Inadl_1, Q8NI35
GIPC2, Q8TF65 = biological target: GIPC2, Q8TF65
NOS1, P29475 = biological target: NOS1, P29475
TJP3_3, O95049 = biological target: T3, TJP3_3, O95049
T3 sequence (O95049 375-456, limits assumed, looked up): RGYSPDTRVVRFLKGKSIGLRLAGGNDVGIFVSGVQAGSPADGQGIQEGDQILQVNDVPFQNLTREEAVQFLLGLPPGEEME

MAGI2_4, Q86UL8 = biological target: MAGI2_4, Q86UL8
HTRA3, P83110 = biological target: T4, HTRA3, P83110
T4 sequence (P83110 354-453, limits assumed, looked up): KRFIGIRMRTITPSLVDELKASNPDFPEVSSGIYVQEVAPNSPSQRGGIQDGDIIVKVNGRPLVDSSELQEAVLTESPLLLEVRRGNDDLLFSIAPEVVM

TIAM2, Q8IVF5 = biological target: T5, TIAM2, Q8IVF5
T5 sequence (Q8IVF5 885-986, limits assumed, looked up): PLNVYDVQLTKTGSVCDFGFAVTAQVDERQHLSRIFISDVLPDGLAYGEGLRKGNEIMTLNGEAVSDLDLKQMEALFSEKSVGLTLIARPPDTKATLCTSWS

APBA1_1, Q02410 = biological target: T6, APBA1_1, Q02410
T6 sequence (Q02410 651-752, limits assumed, looked up): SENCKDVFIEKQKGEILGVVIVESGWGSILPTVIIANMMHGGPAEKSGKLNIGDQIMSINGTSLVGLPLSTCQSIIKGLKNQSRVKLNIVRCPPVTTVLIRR

GRIP1_4, Q9Y3R0 = biological target: T7, GRIP1_4, Q9Y3R0
T7 sequence (Q9Y3R0 467-571, limits assumed, looked up): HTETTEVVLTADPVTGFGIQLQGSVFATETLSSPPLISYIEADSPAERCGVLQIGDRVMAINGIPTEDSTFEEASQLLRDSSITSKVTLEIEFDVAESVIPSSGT

GRIP1_5, Q9Y3R0 = biological target: T8, GRIP1_5, Q9Y3R0
T8 sequence (Q9Y3R0 568-668, limits assumed, looked up): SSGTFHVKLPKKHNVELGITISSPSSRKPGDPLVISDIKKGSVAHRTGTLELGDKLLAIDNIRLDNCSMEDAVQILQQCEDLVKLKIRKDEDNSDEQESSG

DLG4_3, P78352 = biological target: DLG4_3, P78352
Inadl_4, Q8NI35 = biological target: Inadl_4, Q8NI35
MPDZ_10, O75970 = biological target: T9, MPDZ_10, O75970
T9 sequence (O75970 1624-1722, limits assumed, looked up): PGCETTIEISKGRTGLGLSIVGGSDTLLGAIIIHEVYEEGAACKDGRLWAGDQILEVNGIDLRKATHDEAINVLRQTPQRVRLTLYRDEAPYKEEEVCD

SCRIB_2, Q14160 = biological target: SCRIB_2, Q14160
HTRA1, Q92743 = biological target: HTRA1, Q92743
NHERF4_1, Q86UT5-2 = biological target: NHERF4_1, Q86UT5-2
DFNB31_2, Q9P202 = biological target: T10, DFNB31_2, Q9P202
T10 sequence (Q9P202 274-371, limits assumed, looked up): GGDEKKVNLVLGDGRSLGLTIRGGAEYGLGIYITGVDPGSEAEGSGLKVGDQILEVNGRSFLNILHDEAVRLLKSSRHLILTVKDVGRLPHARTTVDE

PDZRN3_1, Q9UPQ7 = biological target: T11, PDZRN3_1, Q9UPQ7
T11 sequence (Q9UPQ7 244-349, limits assumed, looked up): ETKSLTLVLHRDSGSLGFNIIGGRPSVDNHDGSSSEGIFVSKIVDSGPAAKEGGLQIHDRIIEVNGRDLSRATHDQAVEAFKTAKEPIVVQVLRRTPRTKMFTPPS

FRMPD1, Q5SYB0 = biological target: T12, FRMPD1, Q5SYB0
T12 sequence (Q5SYB0 52-145, limits assumed, looked up): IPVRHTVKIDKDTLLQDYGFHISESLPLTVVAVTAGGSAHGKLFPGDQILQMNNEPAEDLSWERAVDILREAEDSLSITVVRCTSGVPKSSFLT

Inadl_2, Q8NI35 = biological target: Inadl_2, Q8NI35
GOPC, Q9HD26 = biological target: GOPC, Q9HD26

Sequence of NOS1, P29475 (P29475 9-101): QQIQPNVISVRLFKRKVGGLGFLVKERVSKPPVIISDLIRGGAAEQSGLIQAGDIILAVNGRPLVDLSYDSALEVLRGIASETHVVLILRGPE
Sequence of HTRA1, Q92743 (Q92743 360-477): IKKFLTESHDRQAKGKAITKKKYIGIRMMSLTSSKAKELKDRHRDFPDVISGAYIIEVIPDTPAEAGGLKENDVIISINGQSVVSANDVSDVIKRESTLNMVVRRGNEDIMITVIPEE
Sequence of Inadl_1, Q8NI35 (Q8NI35 113-229): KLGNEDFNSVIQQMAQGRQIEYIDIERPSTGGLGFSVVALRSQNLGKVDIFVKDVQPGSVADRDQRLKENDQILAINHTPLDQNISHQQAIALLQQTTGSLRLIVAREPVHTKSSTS
Sequence of NHERF4_1, Q86UT5-2 (Q86UT5 other isoform, or with tags, fused parts or gaps): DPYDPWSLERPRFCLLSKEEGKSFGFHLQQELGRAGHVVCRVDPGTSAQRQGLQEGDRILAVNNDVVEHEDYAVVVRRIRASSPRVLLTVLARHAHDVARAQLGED
Sequence of Inadl_3, Q8NI35 (Q8NI35 359-469): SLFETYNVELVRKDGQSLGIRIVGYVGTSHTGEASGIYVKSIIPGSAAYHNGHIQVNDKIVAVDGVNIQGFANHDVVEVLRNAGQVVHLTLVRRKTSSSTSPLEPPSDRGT
Sequence of SCRIB_3, Q14160 (Q14160 999-1103): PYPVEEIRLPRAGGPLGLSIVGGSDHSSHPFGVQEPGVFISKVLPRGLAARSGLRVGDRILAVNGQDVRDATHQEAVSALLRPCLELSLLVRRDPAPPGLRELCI
Sequence of Inadl_2, Q8NI35 (Q8NI35 238-335): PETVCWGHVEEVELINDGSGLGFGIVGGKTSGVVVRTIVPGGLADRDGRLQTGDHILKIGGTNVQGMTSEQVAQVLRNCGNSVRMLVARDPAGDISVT
Sequence of SCRIB_2, Q14160 (Q14160 857-960): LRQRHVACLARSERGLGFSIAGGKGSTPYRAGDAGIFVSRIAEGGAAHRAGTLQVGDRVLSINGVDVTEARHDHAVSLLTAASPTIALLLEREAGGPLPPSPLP
Sequence of Inadl_4, Q8NI35 (Q8NI35 547-651): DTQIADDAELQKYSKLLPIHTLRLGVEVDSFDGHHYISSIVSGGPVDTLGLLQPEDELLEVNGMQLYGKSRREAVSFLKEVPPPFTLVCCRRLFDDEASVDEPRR
Sequence of MAGI2_4, Q86UL8 (Q86UL8 772-865): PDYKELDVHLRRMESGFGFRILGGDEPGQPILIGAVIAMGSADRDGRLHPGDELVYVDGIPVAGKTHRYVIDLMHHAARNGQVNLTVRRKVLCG
Sequence of GIPC2, Q8TF65 (Q8TF65 112-203): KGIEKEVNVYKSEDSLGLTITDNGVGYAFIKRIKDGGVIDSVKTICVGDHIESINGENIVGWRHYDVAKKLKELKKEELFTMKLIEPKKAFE
Sequence of DLG4_3, P78352 (P78352 306-403): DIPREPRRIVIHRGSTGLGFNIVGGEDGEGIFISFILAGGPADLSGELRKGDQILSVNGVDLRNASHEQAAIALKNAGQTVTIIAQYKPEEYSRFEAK
Sequence of TJP2_1, Q9UDY2 (Q9UDY2 24-128): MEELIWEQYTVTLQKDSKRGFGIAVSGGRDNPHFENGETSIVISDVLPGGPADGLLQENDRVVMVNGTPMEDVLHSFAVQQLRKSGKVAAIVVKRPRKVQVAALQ

- pKd (TJP2_1, Q9UDY2): below the threshold
- pKd (APBA1_2, Q02410): below the threshold
- pKd (Inadl_3, Q8NI35): below the threshold
- pKd (SCRIB_3, Q14160): 4.36
- pKd (HTRA4, P83105): 3.71
- pKd (Inadl_1, Q8NI35): below the threshold
- pKd (GIPC2, Q8TF65): below the threshold
- pKd (NOS1, P29475): 3.7
- pKd (TJP3_3, O95049): 3.59
- pKd (MAGI2_4, Q86UL8): 3.78
- pKd (HTRA3, P83110): below the threshold
- pKd (TIAM2, Q8IVF5): 3.5
- pKd (APBA1_1, Q02410): below the threshold
- pKd (GRIP1_4, Q9Y3R0): below the threshold
- pKd (GRIP1_5, Q9Y3R0): 3.52
- pKd (DLG4_3, P78352): below the threshold
- pKd (Inadl_4, Q8NI35): below the threshold
- pKd (MPDZ_10, O75970): 3.76
- pKd (SCRIB_2, Q14160): below the threshold
- pKd (HTRA1, Q92743): 4.09
- pKd (NHERF4_1, Q86UT5-2): 3.57
- pKd (DFNB31_2, Q9P202): below the threshold
- pKd (PDZRN3_1, Q9UPQ7): 3.75
- pKd (FRMPD1, Q5SYB0): below the threshold
- pKd (Inadl_2, Q8NI35): below the threshold
- pKd (GOPC, Q9HD26): 4.96
B1: RPS6KA1, Q15418 (peptide)
chain: RRVRKLPSTTL

- pKd (TJP2_1, Q9UDY2): 3.71
- pKd (APBA1_2, Q02410): 3.62
- pKd (Inadl_3, Q8NI35): below the threshold
- pKd (SCRIB_3, Q14160): below the threshold
- pKd (HTRA4, P83105): below the threshold
- pKd (Inadl_1, Q8NI35): below the threshold
- pKd (GIPC2, Q8TF65): below the threshold
- pKd (NOS1, P29475): 3.96
- pKd (TJP3_3, O95049): 3.57
- pKd (MAGI2_4, Q86UL8): 3.74
- pKd (HTRA3, P83110): 3.5
- pKd (TIAM2, Q8IVF5): below the threshold
- pKd (APBA1_1, Q02410): below the threshold
- pKd (GRIP1_4, Q9Y3R0): below the threshold
- pKd (GRIP1_5, Q9Y3R0): below the threshold
- pKd (DLG4_3, P78352): below the threshold
- pKd (Inadl_4, Q8NI35): below the threshold
- pKd (MPDZ_10, O75970): 3.59
- pKd (SCRIB_2, Q14160): below the threshold
- pKd (HTRA1, Q92743): below the threshold
- pKd (NHERF4_1, Q86UT5-2): 3.52
- pKd (DFNB31_2, Q9P202): below the threshold
- pKd (PDZRN3_1, Q9UPQ7): below the threshold
- pKd (FRMPD1, Q5SYB0): below the threshold
- pKd (Inadl_2, Q8NI35): below the threshold
- pKd (GOPC, Q9HD26): below the threshold
B2: MAP2K2, P36507 (peptide)
chain: QPGTPTRTAV
